Measured values reported in PMC6749071, “Identification of Lysine Histidine Transporter 2 as an 1-Aminocyclopropane Carboxylic Acid Transporter in Arabidopsis thaliana by Transgenic Complementation Approach” (Frontiers in Plant Science, 2019).

Substrate: NC1(C(=O)O)CC1
Assay: two-electrode voltage clamp, inward current in Xenopus oocytes
Format: cell-based, Arabidopsis thaliana
Details: pH 5.6, -80 mV, room temperature, Michaelis-Menten fit

Protein	K0.5 [mM]
LHT1 (Arabidopsis thaliana) (protein, cDNA in pGEM-HE, cRNA injected into Xenopus laevis oocytes) MVAQAPHDDHQDDEKLAAARQKEIEDWLPITSSRNAKWWYSAFHNVTAMVGAGVLGLPYAMSQLGWGPGIAVLVLSWVITLYTLWQMVEMHEMVPGKRFDRYHELGQHAFGEKLGLYIVVPQQLIVEIGVCIVYMVTGGKSLKKFHELVCDDCKPIKLTYFIMIFASVHFVLSHLPNFNSISGVSLAAAVMSLSYSTIAWASSASKGVQEDVQYGYKAKTTAGTVFNFFSGLGDVAFAYAGHNVVLEIQATIPSTPEKPSKGPMWRGVIVAYIVVALCYFPVALVGYYIFGNGVEDNILMSLKKPAWLIATANIFVVIHVIGSYQIYAMPVFDMMETLLVKKLNFRPTTTLRFFVRNFYVAATMFVGMTFPFFGGLLAFFGGFAFAPTTYFLPCVIWLAIYKPKKYSLSWWANWVCIVFGLFLMVLSPIGGLRTIVIQAKGYKFYS	60.9 ± 8.2
LHT2 (Arabidopsis thaliana) (protein, cDNA in pGEM-HE, cRNA injected into Xenopus laevis oocytes) MGNSEMSASEVAAAKQKNVDDWLPITSSRNAKWWYSAFHNVTAMVGAGVLSLPYAMSNLGWGPGVTIMVMSWIITLYTLWQMVEMHEIVPGKRLDRYHELGQHAFGEKLGLWIVVPQQLIVEVGVDIVYMVTGGASLKKVHQLVCPDCKEIRTTFWIMIFASVHFVISHLPNFNSISIISLAAAVMSLTYSTIAWAASVHKGVHPDVDYSPRASTDVGKVFNFLNALGDVAFAYAGHNVVLEIQATIPSTPEMPSKVPMWRGVIVAYIVVAICYFPVAFLGYYIFGNSVDDNILITLEKPIWLIAMANMFVVIHVIGSYQIFAMPVFDMLETVLVKKMNFNPSFKLRFITRSLYVAFTMIVAICVPFFGGLLGFFGGFAFAPTTYYLPCIMWLVLKKPKRFGLSWTANWFCIIVGVLLTILAPIGGLRTIIINAKTYKFFS	59.1 ± 6.6
